Here are results for one molecule from patent US20210079400A1 (CZ BIOHUB SF, published 2021).

This test has as its target T1, BMPR2 (human, on breast cancer cells) (human, UniProt Q13873 27-1038).
T1 construct: whole, on cells; The PDX cells are described as human breast tumor cells; also called BMP Receptor 2
T1 sequence (looked up): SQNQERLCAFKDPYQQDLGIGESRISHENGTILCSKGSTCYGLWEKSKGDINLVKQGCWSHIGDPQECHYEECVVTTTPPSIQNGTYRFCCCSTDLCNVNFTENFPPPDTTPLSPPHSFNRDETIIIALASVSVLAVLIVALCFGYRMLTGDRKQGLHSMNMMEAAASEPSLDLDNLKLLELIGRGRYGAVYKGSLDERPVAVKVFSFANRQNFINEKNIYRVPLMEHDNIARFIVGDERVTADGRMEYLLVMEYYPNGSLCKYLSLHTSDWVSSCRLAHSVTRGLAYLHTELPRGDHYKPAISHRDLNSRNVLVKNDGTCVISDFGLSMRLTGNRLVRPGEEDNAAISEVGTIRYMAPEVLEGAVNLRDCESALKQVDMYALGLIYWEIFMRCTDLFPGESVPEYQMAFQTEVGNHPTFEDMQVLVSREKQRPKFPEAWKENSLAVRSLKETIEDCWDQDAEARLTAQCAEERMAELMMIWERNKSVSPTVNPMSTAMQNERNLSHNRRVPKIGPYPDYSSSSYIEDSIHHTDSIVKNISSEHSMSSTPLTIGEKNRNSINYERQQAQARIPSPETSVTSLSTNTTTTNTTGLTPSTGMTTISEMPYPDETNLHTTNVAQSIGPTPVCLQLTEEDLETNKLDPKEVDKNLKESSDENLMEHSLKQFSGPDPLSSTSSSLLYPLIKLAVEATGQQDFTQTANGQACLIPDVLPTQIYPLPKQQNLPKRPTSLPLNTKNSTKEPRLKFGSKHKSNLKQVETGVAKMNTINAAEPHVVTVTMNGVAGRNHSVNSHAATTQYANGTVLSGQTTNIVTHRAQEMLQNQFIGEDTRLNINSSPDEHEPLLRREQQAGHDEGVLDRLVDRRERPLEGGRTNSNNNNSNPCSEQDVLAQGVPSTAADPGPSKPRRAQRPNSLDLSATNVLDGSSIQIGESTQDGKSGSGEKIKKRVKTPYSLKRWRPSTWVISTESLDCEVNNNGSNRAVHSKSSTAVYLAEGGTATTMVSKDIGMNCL
Put plainly: Proximity Ligation on sorted breast cancer PDX cells. The text has this: Next, we examined the interaction of LEFTY-BMPR2 and BMP7-BMPR2 in different subpopulations of breast cancer cells. Tumor cells were isolated from 3 established breast cancer PDXs using flow cytometry. These models were characterized to follow the cancer stem cell paradigm. The cells were sorted based on EpCAM and CD49f cell surface markers. Different protein-protein interactions were quantified by Proximity Ligation and the cells were also simultaneously stained for pSMAD2 or pSMAD5. As shown in FIGS. 14A-14D, in the tumorigenic population the LEFTY-BMPR2 interaction is predominant, whereas the BMP7-BMPR2 interaction is predominant in non-tumorigenic population.

B1: BMP7 (human, endogenous in breast cancer PDX cells) (ligand, UniProt P18075 293-431, looked up)
chain: STGSKQRSQNRSKTPKNQEALRMANVAENSSSDQRQACKKHELYVSFRDLGWQDWIIAPEGYAAYYCEGECAFPLNSYMNATNHAIVQTLVHFINPETVPKPCCAPTQLNAISVLYFDDSSNVILKKYRNMVVRACGCH
As for B1, the binding result is recorded as “binds”.
